Assay results published in patent US20170052184A1 (published 2017).

T1: HCV bt-134-154 (Peptide 1, HCVc 134-154) (Hepatitis C virus (numbering per HCV-1), biotin (carboxy-terminal per; N-terminal per))
T1 peptide: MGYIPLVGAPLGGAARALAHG

T2: HCV bt-151-171 (Peptide 3, HCVc 151-171) (Hepatitis C virus (numbering per HCV-1), biotin (carboxy-terminal per; N-terminal per))
T2 peptide: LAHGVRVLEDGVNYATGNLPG

T3: HCV bt-141-161 (Peptide 2, HCVc 141-161) (Hepatitis C virus (numbering per HCV-1), biotin (carboxy-terminal per; N-terminal per))
T3 peptide: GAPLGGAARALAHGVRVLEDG


Key:
Test in all cases: EIA, captured mAb + biotin peptide
[1] = biological target: T1, HCV bt-134-154 (Peptide 1, HCVc 134-154)
[2] = biological target: T2, HCV bt-151-171 (Peptide 3, HCVc 151-171)
[3] = biological target: T3, HCV bt-141-161 (Peptide 2, HCVc 141-161)

| Binder | Reactivity (OD 492 nm) [1] | Reactivity (OD 492 nm) [2] | Reactivity (OD 492 nm) [3] |
| --- | --- | --- | --- |
| HCV 208A-920 (antibody, V domains shown) VH: not shown VL: DIVLTQSPASLAVSLGQRATISCRASQSVSTSRYSYMHWYQQKPGQPPKLLIKYASNLESGVPARFSGSGSGTDFTLNIHPVAEEDTAAYYCQHSWEFPFTFGSGTKLEIKR | 0.17 OD units | 0.08 OD units | 4 OD units |
| HCV 208A-557 (antibody, V domains shown) VH: QGQMQQSGAELVKPGASVKLSCKTSGFTFSSSYISWLKQKPGQSLEWIAWIYAGTGNTNYNQKFTDKAQLTVDTSSSTAYMQLSSLTTEDSAIYYCAISGTGFTYWGQGTLVTVSA VL: DIALTQSPASLAVSLGQRATISCRASQSVSTSRYSYMHWYQQKPGQPPELLIKYASNLESGVPARFSGSGSGTDFTLNIHPVGEEDTATYYCQHSWDFPFTFGSGTKLEIKR | 0.05 OD units | 0.06 OD units | 2.41 OD units |
| HCV 208B-560 (antibody, V domains shown) VH: EVQLQQSGPELEKPGASVKISCKTSGYTFTEYAMHWVKQSHGMSLEWIGGINPSNGNAIYNQIFKDKATLTVDRSSSTAYMGLRSLTFGDSGVYFCVRRQLDFFDYWGQGASLTVSS VL: DIVVTQSPASLAVSLGQRATISCRASQSVSTSRYSYLHWYQQKPGQPPKLLIKYASNLESGVPARFSGSGSGTDFTLNIHPVGEEDTATYYCQHSWEFPFTFGSGTKLEIKR | 0.11 OD units | 0.14 OD units | 3.9 OD units |
| HCV 208A-741 (antibody, V domains shown) VH: QLQQSGPVLVKPGASVMISCKTSGYTFTENAMHWVKQSHGKSLEWIGGVNPNNGDTIFNQKFKGKATLTVDKSSSTAFMELRSLTSEESTVYYCVRRELDFFDYWGQGTSVTVSS VL: DIVLTQSPASLAVSLGQRTTISCGASQSVSTSRFSYMHWYQQKPGQPPKLLIKYASNLESGVPARFSGSGSGTDFTLNIHPVAEEDTAAYYCQHSWEFPFTFGSGTKLEIKR | 1.2 OD units | 0.06 OD units | 3.37 OD units |
| HCV 208B-556 (antibody, V domains shown) VH: QLQQSGPVLVKPGASVMISCKTSGYTFTENAMHWVKQSHGKSLEWIGGVNPNNGDTIFNQKFKGKATLTVDKSSSTAFMEFRSLTSEESTVYYCVRRELDFFDYWGQGTSVTVSS VL: DIVLTQSPASLAVSLGQRATISCRASQSVSTSRYSYMHWYQQKPGQPPKLLIKYASNLESGVPARFSGSGSGTDFTLNIHPVAEEDTATYYCQHSWEFPFTFGSGTKLEIKR | 0.13 OD units | 0.18 OD units | 3.07 OD units |
| HCV 208A-159 (antibody, V domains shown) VH: QLQQSGPAQVKPGASVMISCKTSGYTFTENAMHWVKQSHGKSLEWIGGVNPNNGDTIFNQKFKDKAALTVDKSSSTAFMELRSLTSEESTVYYCVRRELDFFDYWGQGTSVTVSS VL: DIVLTQSPASLAVSLGQRATISCRASQSVSTSRYSYVHWYQQKPGQPPKLLIKYAANLESGVPARFSGSGSGTDFTLNIHPVAEEDAAAYYCQHSWEFPFTFGSGTKLEIKR | 0.15 OD units | 0.19 OD units | 3.77 OD units |
| HCV 208A-110 (antibody, V domains shown) VH: not shown VL: DIVLTQSPASLAVSLGQRATISCRASQSVSTSRYSYMHWYQQKPGQPPKLLIKYASNLESGVPARFSGSGSGTDFTLNIHPVAEEDTAAYYCQHSWEFPFTFGSGTKLEIKR | 0.07 OD units | 0.11 OD units | 2.88 OD units |
| HCV 208A-126 (antibody, V domains shown) VH: QLQQSGPVLVKPGASVMISCKTSGYTFTENAMHWVKQSHGKSLEWIGGVNPNNGDTIFNQKFKGKATLTVDKSSNTAFTELRSLPSEESTVYYCVRRGLDFFDYWGQGTSVTVSS VL: DIVLTQSPASLAVSLGQRATISCRASQSVSTSRYSYMHWYQQKPGQPPKLLIKYASNLESGVPARFSGSGSGTDFTLNIHPVAEEDTAAYYCQHSWEFPFTFGSGTKLEIKR | 0.2 OD units | 0.1 OD units | 2.08 OD units |
| HCV 208A-605 (antibody, V domains shown) VH: EVQLQQSGPELEKPGASVKISCKTSGYTFTEYAIHWVKQSHGMSLEWIGGINPSNGNAIYNQIFKDKATLTVDRSSSTAYMGLRSLTFGDSGVYFCVRRQLDFFDYWGQGASLTVSS VL: DIVVTQSPASLAVSLGQRATISCRASQSVSTSRYSYLHWYQQKPGQPPKLLIKYASNLESGVPARFSGSGSGTDFTLNIHPVGEEDTATYYCQHSWEFPFTFGSGTKLEIKR | 0.22 OD units | 0.16 OD units | 3.71 OD units |
| HCV 208A-133 (antibody, V domains shown) VH: QLQQSGPVLVGPGASVMISCKTSGYTFTENAMHWVEQSHGKSLEWIGGVNPNNGDTIFNQKFKGKATLTVDKSSSTAFMEFRSLTSEESTVYYCVRRELDFFDYWGQGTSVTVSS VL: DIVLTQSPASLAVSLGQRATISCRASQSVSTSRYSYMHWYQQKPGQPPKLLIKYASNLESGVPARFSGSGSGTDFTLNIHPVAEEDTATYYCQHSWEFPFTFGSGTKLEIKR | 0.1 OD units | 0.13 OD units | 3.68 OD units |
| HCV 208B-251 (antibody, V domains shown) VH: QLQQSGPVLVKPGASVKISCKTSGYTFTENAMHWVKQSHGKSLEWIGGVNPNNGDTIYNQKFKGKATLTVDKSSSTAFMELRSLTSEESPVYFCVRRELDFFDYWGQGTSVTVSS VL: DIVLTQSPASLAVSLGKKATISCRASQSVSTSRYSYMHWYQQKPGHPPKLLIKYASNLESGVPARFSGSGSGTDFTLNIHPVAEEDTAAYYCQHSWEFPFTFGSGTKLEIKR | 0.11 OD units | 0.41 OD units | 2.35 OD units |
| HCV 208A-334 (antibody, V domains shown) VH: not shown VL: DIVLTQSPASLAVSLGQRATISCRASQSVSTSRYSYMHWYQQKPGQPPKLLIKYASNLESGVPARFSGSGSGTDFTLNIHPVAEEDTAAYYCQHSWGFPFTFGSGTKLEIKR | 0.05 OD units | 0.05 OD units | 3.07 OD units |
| HCV 208A-222 (antibody, V domains shown) VH: EVQLQQSGPELEKPGASVRISCKTSGYTFTEYAMHWVKQSHGKSLEWIGGINPNNGNAIYNQIFKDKATLTVDRSSSTAYMGLRSLTFGDSGVYFCVRRQLDYFDYWGQGASLTVSS VL: DIVVTQSPASLAVSLGQRATISCRASQSVSTSRYSYLHWYQQKPGQPPKLLIKYASNLESGVPARFSGSGSGTDFTLNIHPVGEEDTATYYCQHSWEFPFTFGSGTKLEIKR | 0.06 OD units | 0.08 OD units | 2.7 OD units |
| HCV 208B-1094 (antibody, V domains shown) VH: EVQLQQSGPELVKPGASVKISCKTSGYTFTEYAMHWMKQSHGKSLEWIGGINPTNGDTIYNQRFKDKAKLTVDRSSSTAYMELRSLTSDDSALFYCARRELDYFASWGQGTTLTVSS VL: DIVLTQSPASLIVSLGQTATISCRASQSLSTSRFSYVHWIQQKPGQPPKLLIKYASNLESGVPVRFSGSGSGTDFTLNIHPVEEEDTATYFCQHSWEFPFTFGSGTKLKIKR | 0.12 OD units | 0.13 OD units | 3.28 OD units |
| HCV 208A-352 (antibody, V domains shown) VH: QGQMQQSGAELVKPGASVKLSCKTSGFTFSSSFISWLKQKPGQSLEWIAWIYAGTGNTNYNQKFTDKAQLTVDTSSSTAYMQFSSLTTEDSAIYYCAISGTGFTYWGQGTLVTVSA VL: DVLMAQTPLSLPVTLGDQASISCRSSQSLVHSNGNTYLEWFLQKPGQSPKLLIYNVSNRFSGVPDRFSGSGSGTDFTLKISRVEAEDLGVYYCFQGSHVPLTFGSGTKLEIKR | 1.08 OD units | 0.06 OD units | 0.07 OD units |
| HCV 208A-983 (antibody, V domains shown) VH: QGQMQQSGAELVKPGASVKLSCKTSGFTFSSSYFSWLKQKPGQSLEWIAWIYAGTGNTIYNQKFTDKAQLTVDTASSTAFMQLSSLTIEDSAIYYCAISGTGFTYWGQGTLVTVSA VL: DVLMTQTPLSLPVNLGDQASISCRSSQSLLHSNGNTYLEWFLQKPGQSPKLLIYNVSNRFSGVPDRFSGSGSGTDFTLKISRVEAEDLGVYYCFQGSHVPFTFGSGTKLAIKR | 3.03 OD units | 0.05 OD units | 0.4 OD units |
| HCV 208B-281 (antibody, V domains shown) VH: QGQLQQSGAELVKPGASVKLSCKTSGFTFSSSYISWLKQRPGQSLEWIAWIYAGTGGTNYNQKFTDKAQLTVDTSSSTAYMQFSSLTTEDSAIYYCAISGTGFIYWGQGTLVTVSA VL: DVLMTQTPLSLPVSLGDQASISCRSSQSLVHNNGNTYLEWFLQKPGQSPKLLIYKVSNRFSGVPDRFSGSGSGTDFTLKISRVEAEDLGVYYCFQGSHVPFTFGSGTKLEIKR | 1.48 OD units | 0.12 OD units | 0.16 OD units |
| HCV 208A-422 (antibody, V domains shown) VH: DVQLQESGPGLVNPSQSLSLTCSVTGYSITSGYYWIWIQQSPGNKLEWMGYIKYDGGNNYSPSLKNRISIARDTSKNQCFLKLNSVTIEDTATYYCTRGSDSFDYWGQGTTLTVSS VL: DIVLTQSPASLAVSLGQRAIISCKASQSVSFAGTNLMHWYQQKPGQQPKLLIYRASNLETGVPTRFSGSGSRTDFTLNIHPVEEDDAATYYCQQSREYYTFGGGTKLEIKR | 0.05 OD units | 0.1 OD units | 0.84 OD units |
| HCV 208A-442 (antibody, V domains shown) VH: DVQLQESGPGLVNPSQSLSLTCSVTGYSITSGYYWIWIRQFPGNKLEWMGYIKYDGGNNYSPSLKNRISIARDTSKNQFFLKLNSVTIEDTATYYCTRGSDSFDYWGQGTTLTVSS VL: DIVLTQSPASLAVSLGQRAIISCKASQSVSFAGTNLMHWYQQKPGQQPKLLIYRASNLETGVPTRFSGSGSRTDFTLNIHPVEEDDAATYYCQQSREYYTFGGGTKLEIKR | 0.08 OD units | 0.06 OD units | 3.04 OD units |
